Experimental data published in publication PMC7912279 (2021).

Legend:
[1] = molecular target: T1, gastrin-releasing peptide receptor (Homo sapiens, UniProt P30550); assay: LigandTracer on PC-3 cells (1:2 model, KD1)
[2] = molecular target: T1, gastrin-releasing peptide receptor; assay: LigandTracer on PC-3 cells (1:2 model, KD2)

T1 sequence (P30550 whole entry): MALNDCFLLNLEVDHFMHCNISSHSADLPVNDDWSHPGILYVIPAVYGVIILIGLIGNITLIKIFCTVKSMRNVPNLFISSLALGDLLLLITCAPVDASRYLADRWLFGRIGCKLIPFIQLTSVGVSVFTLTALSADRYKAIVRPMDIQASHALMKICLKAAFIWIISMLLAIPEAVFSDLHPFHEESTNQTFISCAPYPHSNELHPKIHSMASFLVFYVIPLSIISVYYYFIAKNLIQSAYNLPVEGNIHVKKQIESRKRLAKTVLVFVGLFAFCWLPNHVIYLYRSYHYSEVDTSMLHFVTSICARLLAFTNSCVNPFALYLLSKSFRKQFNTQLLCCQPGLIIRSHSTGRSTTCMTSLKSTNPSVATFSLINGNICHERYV

| Binder | Kd [1] | Kd [2] |
| --- | --- | --- |
| SESFQWAVGHL (99mTc, mercaptoacetyl-Ser-Glu-Ser-PEG2-D-Phe-Gln-Trp-Ala-Val-Gly-His-Sta-Leu-NH2) [maSES-PEG2-RM26] | 0.849 nM | 1.4 nM |
| SSSFQWAVGHL (99mTc, mercaptoacetyl-Ser-Ser-Ser-PEG2-D-Phe-Gln-Trp-Ala-Val-Gly-His-Sta-Leu-NH2) [maSSS-PEG2-RM26] | 0.061 nM | 1.2 nM |
